Among the targets are 1D9; 1E1; 1B6; 1H7; 1C8; 1A2; 1D8; 1B11-2; 1D7.
Holding throughout (assay): Carterra LSA SPR

B1: huMICB (ligand)
chain: AEPHSLRYNLMVLSQDGSVQSGFLAEGHLDGQPFLRYDRQKRRAKPQGQWAENVLGAKTWDTETEDLTENGQDLRRTLTHIKDQKGGLHSLQEIRVCEIHEDSSTRGSRHFYYDGELFLSQNLETQESTVPQSSRAQTLAMNVTNFWKEDAMKTKTHYRAMQADCLQKLQRYLKSGVAIRRTVPPMVNVTCSEVSEGNITVTCRASSFYPRNITLTWRQDGVSLSHNTQQWGDVLPDGNGTYQTWVATRIRQGEEQRFTCYMEHSGNHGTHPVPSGKALVLQSQRTDFPYVSAAMPCFVIIIILCVPCCKKKTSAAEGPELVSLQVLDQHPVGTGDHRDAAQLGFQPLMSATGSTGSTEGT
For orientation: Kd means the constant that tells how readily two partners part at equilibrium. Low values mean a tighter complex, high ones a looser complex. B1: the Kd with 1D9 was determined as 0.453 nM; with 1E1, 2.23 nM; with 1B6, 1.05 nM; in the assay with 1H7, 254 nM; in the assay with 1C8, 7.72 nM; in the assay with 1A2, 0.181 nM. For the same molecule, the Kd came to 4.5 nM in the assay with 1D8, 1.11 nM with 1B11-2 and 1.47 nM in the assay with 1D7.

B2: huMICA (ligand)
chain: EPHSLRYNLTVLSWDGSVQSGFLTEVHLDGQPFLRCDRQKCRAKPQGQWAEDVLGNKTWDRETRDLTGNGKDLRMTLAHIKDQKEGLHSLQEIRVCEIHEDNSTRSSQHFYYDGELFLSQNLETKEWTMPQSSRAQTLAMNVRNFLKEDAMKTKTHYHAMHADCLQELRRYLKSGVVLRRTVPPMVNVTRSEASEGNITVTCRASGFYPWNITLSWRQDGVSLSHDTQQWGDVLPDGNGTYQTWVATRICQGEEQRFTCYMEHSGNHSTHPVPSGKVLVLQSHWQTFHVSAVAAAAIFVIIIFYVRCCKKKTSAAEGPELVSLQVLDQHPVGTSDHRDATQLGFQPLMSDLGSTGSTEGA
For the molecule B2, the Kd was 12.8 nM with 1D9; 12.2 nM with 1E1; 5.85 nM with 1B6; 75 nM in the assay with 1H7; 20.6 nM with 1C8; 2.13 nM with 1A2. The Kd in the assay with 1D8 turned out to be 46.7 nM; with 1B11-2, 2.83 nM; with 1D7, 0.344 nM.

The values are drawn from patent publication US20250243279A1 (published 2025).
